Data reported in patent publication US5648211.

Test system: BsrI
Experiment: cleavage_in_vitro
Conditions: PS at A in filled-in regions; SDA cycle turnover with Bst polymerase; 60 C, 6 mM MgCl2, 50 mM KCl, pH 7.6

**Q.** “CCACCTCTGACTTGAGCGTCCCAGTGTCAATACGGCGGAGCCTATGGAGTAACGCC / GCAAAAGGCCAGGAACCGATAAAAGGATGCGTTGCTGGCGTTACTCCATAGGCTCCG [linear SDA BsrI duplex (filled in to 92 bp)]” was tested. Which activity did it give?
**A.** 1 min⁻¹
